Results from paper PMC12838526.

Target: F-actin (polymerized rabbit skeletal muscle actin) (rabbit) (UniProt P68135)
Assay: co-sedimentation

Row | percent co-sedimented with F-actin [%] | percent co-sedimented with F-actin, αcat ABD added [%] | Substance
1 | 55 | 76 | Cno FAB peptide (residues 1967-2051), full-length form (domain or fragment)
2 | 32 |  | GST-Cno H+C+FAB-His6 (Cno residues 1560-2051) (domain or fragment)
